Data as given in patent US20240158512A1 (TRUEBINDING, published 2024).

Legend:
[1] = target: T1, Galectin-3 (UniProt P17931 1-250, limits assumed); experiment: BLI; after 40 C for 21 days
T1 construct: Target of the anti-Gal3 antibody TB006; also called Gal3; GAL3

[2] = target: T1, Galectin-3; experiment: BLI; after -80 C for 18 months
[3] = target: T1, Galectin-3; experiment: BLI; after -80 C for 3 months
[4] = target: T1, Galectin-3; experiment: BLI; after 3 freeze/thaws, 75% vol. of container
[5] = target: T1, Galectin-3; experiment: BLI; after 4 C for 1 month
[6] = target: T1, Galectin-3; experiment: BLI; after 3 freeze/thaws, 50% vol. of container
[7] = target: T1, Galectin-3; experiment: BLI; after -80 C for 1 month
[8] = target: T1, Galectin-3; experiment: BLI; Time 0 (control)
[9] = target: T1, Galectin-3; experiment: BLI; after 25 C for 9 months
[10] = target: T1, Galectin-3; experiment: BLI; after agitation (shear stress)
[11] = target: T1, Galectin-3; experiment: BLI; after 25 C for 1 month
[12] = target: T1, Galectin-3; experiment: BLI; after -80 C for 6 months
[13] = target: T1, Galectin-3; experiment: BLI; after -80 C for 9 months
[14] = target: T1, Galectin-3; experiment: BLI (Binding Activity); long-term stability 5 C, 0 months; 5° C. long-term table, 0 months, Batch No. 095I0720
[15] = target: T1, Galectin-3; experiment: BLI; after pipetting (shear stress)
[16] = target: T1, Galectin-3; experiment: BLI; after 25 C for 14 days
[17] = target: T1, Galectin-3; experiment: BLI; after -80 C for 12 months
[18] = target: T1, Galectin-3; experiment: BLI; after 40 C for 28 days
[19] = target: T2, Galectin-3 (Gal3) (UniProt P17931 1-250, limits assumed); experiment: BLI; 20 mg/mL DS after 4 C for 12 months
T2 construct: Target of TB006
Outline: (§1)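 Samples were taken at time zero or after stress: agitation (shear), repeated freeze-thaw cycles, or storage at set temperatures, including a 40° C stress test and cryogenic storage. Binding to Galectin-3 was measured by biolayer interferometry and reported as the dissociation constant (Kd).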

[20] = target: T2, Galectin-3 (Gal3); experiment: BLI; 20 mg/mL DS after agitation for 3 days
Outline: as §1

[21] = target: T2, Galectin-3 (Gal3); experiment: BLI; 50 mg/mL DS, time 0 control
[22] = target: T2, Galectin-3 (Gal3); experiment: BLI; 50 mg/mL DS after 40 C for 7 days
[23] = target: T2, Galectin-3 (Gal3); experiment: BLI; 50 mg/mL DS after 40 C for 28 days
[24] = target: T2, Galectin-3 (Gal3); experiment: BLI; 20 mg/mL DS after -80 C for 9 months
[25] = target: T2, Galectin-3 (Gal3); experiment: BLI; 50 mg/mL DS after 25 C for 14 days
[26] = target: T2, Galectin-3 (Gal3); experiment: BLI; 20 mg/mL DS after 4 C for 3 months
[27] = target: T2, Galectin-3 (Gal3); experiment: BLI; 20 mg/mL DS after 5 freeze/thaws
Outline: as §1

[28] = target: T2, Galectin-3 (Gal3); experiment: BLI; 20 mg/mL DS after 25 C for 1 month
Outline: as §1

[29] = target: T2, Galectin-3 (Gal3); experiment: BLI; 20 mg/mL DS after -80 C for 12 months
Outline: as §1

[30] = target: T2, Galectin-3 (Gal3); experiment: BLI; 50 mg/mL DS after 40 C for 3 months
[31] = target: T2, Galectin-3 (Gal3); experiment: BLI; 20 mg/mL DS after -80 C for 3 months
[32] = target: T2, Galectin-3 (Gal3); experiment: BLI; 50 mg/mL DS after 4 C for 9 months
[33] = target: T2, Galectin-3 (Gal3); experiment: BLI; 50 mg/mL DS after 3 freeze/thaws
[34] = target: T2, Galectin-3 (Gal3); experiment: BLI; 20 mg/mL DS after 4 C for 9 months
Outline: as §1

T1 sequence (P17931 whole entry): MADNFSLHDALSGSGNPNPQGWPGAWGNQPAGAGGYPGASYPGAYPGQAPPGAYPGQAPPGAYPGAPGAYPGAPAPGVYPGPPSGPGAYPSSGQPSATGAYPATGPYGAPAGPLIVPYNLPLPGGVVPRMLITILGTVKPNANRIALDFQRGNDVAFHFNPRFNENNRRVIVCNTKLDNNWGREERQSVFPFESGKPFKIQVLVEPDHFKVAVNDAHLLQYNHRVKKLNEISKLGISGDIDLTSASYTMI
T2 sequence (P17931 whole entry): as above

B1: TB006 (antibody, human IgG4 S228P, kappa, V domains shown)
VH: QVQLVQSGAEVKKPGASVKVSCKASGYSFTNYYMHWVRQAPGQRLEWMGWIYPGSGNTNYNEKFQGRVTITADTSASTAYMELSSLRSEDTAVYYCSTAPGGFDVWGQGTTVTVSS
VL: DIVMTQTPLSLSVTPGQPASISCKSSKSLLHSDGITYLYWYLQKPGQSPQLLIYRMSNLASGVPDRFSGSGSGTDFTLKISRVEAEDVGVYYCAQMLEFPLTFGQGTKLEIKR
notes: Tested as formulated drug substance or drug product in 20 mM L-histidine, 5 mM methionine, 100 mM NaCl, 0.02% polysorbate 80, pH 5.8, or diluted in 0.9% saline; also called 4A11.H3L1; IMT006a
- Kd [1]: 2.8 nM
- Kd [2]: 2 nM
- Kd [3]: 3.3 nM
- Kd [4]: 2.6 nM
- Kd [5]: 3.3 nM
- Kd [6]: 2.3 nM
- Kd [7]: 3.2 nM
- Kd [8]: 2.8 nM
- Kd [9]: 2.8 nM
- Kd [10]: 2.8 nM
- Kd [11]: 3.1 nM
- Kd [12]: 2.8 nM
- Kd [13]: 2 nM
- Kd [14]: 3 nM
- Kd [15]: 2.8 nM
- Kd [16]: 2.6 nM
- Kd [17]: 3 nM
- Kd [18]: 3.1 nM

B2: TB006 (antibody, human IgG4 S228P, kappa, V domains shown)
VH: B1 VH
VL: B1 VL
notes: Full antibody tested as drug substance (DS) in 20 mM L-histidine, 5 mM methionine, 100 mM NaCl, 0.02% polysorbate-80, pH 5.8; also called 4A11.H3L1; IMT006a
- Kd [19]: 2.7 nM
- Kd [20]: 3.4 nM
- Kd [21]: 2.6 nM
- Kd [22]: 2.7 nM
- Kd [23]: 2.3 nM
- Kd [24]: 1.7 nM
- Kd [25]: 3.1 nM
- Kd [26]: 3.4 nM
- Kd [27]: 3.1 nM
- Kd [28]: 3.9 nM
- Kd [29]: 2.7 nM
- Kd [30]: 3.1 nM
- Kd [31]: 3.5 nM
- Kd [32]: 2.8 nM
- Kd [33]: 3.9 nM
- Kd [34]: 1.9 nM
